In ChEMBL document CHEMBL1123068, “2-Fluoroformycin and 2-aminoformycin. Synthesis and biological activity” (J Med Chem, 1985):

Legend:
[1] = substrate: Nc1nc(F)nc2c1ncn2[C@@H]1O[C@H](CO)[C@@H](O)[C@@H]1O; assay: (§1) Kinetic parameter was determined against adenosine deaminase expressed as Vmax
[2] = substrate: Nc1nc(N)c2ncn([C@@H]3O[C@H](CO)[C@@H](O)[C@H]3O)c2n1; assay: as §1
[3] = substrate: Nc1ncnc2c1ncn2[C@@H]1O[C@H](CO)[C@@H](O)[C@H]1O; assay: as §1
[4] = substrate: Nc1nc(F)nc2c1ncn2[C@@H]1O[C@H](CO)[C@@H](O)[C@@H]1O; assay: Kinetic parameter was determined against adenosine deaminase expressed as Km

B1: Adenosine deaminase (Bos taurus), P56658 (protein)
chain: MAQTPAFNKPKVELHVHLDGAIKPETILYYGRKRGIALPADTPEELQNIIGMDKPLSLPEFLAKFDYYMPAIAGCREAVKRIAYEFVEMKAKDGVVYVEVRYSPHLLANSKVEPIPWNQAEGDLTPDEVVSLVNQGLQEGERDFGVKVRSILCCMRHQPSWSSEVVELCKKYREQTVVAIDLAGDETIEGSSLFPGHVKAYAEAVKSGVHRTVHAGEVGSANVVKEAVDTLKTERLGHGYHTLEDATLYNRLRQENMHFEVCPWSSYLTGAWKPDTEHPVVRFKNDQVNYSLNTDDPLIFKSTLDTDYQMTKNEMGFTEEEFKRLNINAAKSSFLPEDEKKELLDLLYKAYGMPSPASAEQCL
With B1 as the protein, how does the Vmax [1] read?
The Vmax was 0.78 M/min/mg.

What about the Vmax (µmol min-1 mg-1) [2] of the same protein?
The Vmax (µmol min-1 mg-1) was 119.

And the Vmax (µmol min-1 mg-1) [3]?
Its Vmax (µmol min-1 mg-1) is 435.

What about the Km [4] of the same protein?
Its Km is 81 µM.
